Experimental findings from patent US20040146507A1 (Genentech, published 2004) are described below.

Assay [1] has as its target T1, human CD11a (human, UniProt P20701 26-1170).
T1 construct: whole, on cells; On Jurkat T-cells or human peripheral blood mononuclear cells, as part of LFA-1; also called CD11a on Jurkat cells; alpha subunit of LFA-1
The experiment in a line: saturation binding, 125I-antibody, human lymphocytes; Kd(app). As to the method: (§1) Radiolabeled antibodies were prepared using Iodo-Gen (Pierce, Rockford, Ill.) according to the manufacturer's instructions. 50 μg of antibody and 1 mCi¹²⁵I (DuPont, Wilmington, Del.) were added to each tube and incubated for 15 min at 25° C. Radiolabeled proteins were purified from the remaining free ¹²⁵I using PD-10 columns (Pharmacia, Uppsala, Sweden) equilibrated in Hank's Balanced Salt Solution (HBSS, Life Technologies, Grand Island, N.Y.) containing 0.2% gelatin.
(§2) Antibody affinities were determined by saturation binding using either peripheral blood mononuclear cells (murine MHM24 and HuIgG1) or rhesus leukocytes (MHM23, RhIgG1). In each assay, a radiolabeled antibody was serially diluted in HBSS-0.2% gelatin in quadruplicate. Nonspecific binding was determined by the addition of 500 nM final concentration of homologous unlabeled antibody in duplicate through the serial dilution. Human lymphocytes or rhesus leukocytes were added to the plates in a volume of 170 μl per well. Plates were incubated for 2 hr at room temperature on an orbital plate shaker. After incubation, cells were harvested using a SKATRON™ cell harvester (Lier, Norway) and washed 10 times with PBS containing 0.25% gelatin and 0.1% sodium azide. Samples were then counted for 1 min in an LBK Wallac GammaMaster gamma counter (Gaithersburg, Md.). […]

Assay [2] addresses T1, human CD11a. The experiment in a line: cell-based or functional assay.
Assay [3] deals with T1, human CD11a. The experiment in a line: saturation binding, human lymphocytes, donor 2; Kd(app). The procedure: as §1, §2
Assay [4] deals with T1, human CD11a. The experiment in a line: saturation binding, human lymphocytes, donor 1; Kd(app). As to the method: as §1, §2
Assay [5] deals with T2, rhesus CD11a (rhesus, UniProt H9Z8N3 26-1169).
T2 construct: whole, on cells; On rhesus peripheral blood lymphocytes or leukocytes; also called rhCD11a
T2 sequence: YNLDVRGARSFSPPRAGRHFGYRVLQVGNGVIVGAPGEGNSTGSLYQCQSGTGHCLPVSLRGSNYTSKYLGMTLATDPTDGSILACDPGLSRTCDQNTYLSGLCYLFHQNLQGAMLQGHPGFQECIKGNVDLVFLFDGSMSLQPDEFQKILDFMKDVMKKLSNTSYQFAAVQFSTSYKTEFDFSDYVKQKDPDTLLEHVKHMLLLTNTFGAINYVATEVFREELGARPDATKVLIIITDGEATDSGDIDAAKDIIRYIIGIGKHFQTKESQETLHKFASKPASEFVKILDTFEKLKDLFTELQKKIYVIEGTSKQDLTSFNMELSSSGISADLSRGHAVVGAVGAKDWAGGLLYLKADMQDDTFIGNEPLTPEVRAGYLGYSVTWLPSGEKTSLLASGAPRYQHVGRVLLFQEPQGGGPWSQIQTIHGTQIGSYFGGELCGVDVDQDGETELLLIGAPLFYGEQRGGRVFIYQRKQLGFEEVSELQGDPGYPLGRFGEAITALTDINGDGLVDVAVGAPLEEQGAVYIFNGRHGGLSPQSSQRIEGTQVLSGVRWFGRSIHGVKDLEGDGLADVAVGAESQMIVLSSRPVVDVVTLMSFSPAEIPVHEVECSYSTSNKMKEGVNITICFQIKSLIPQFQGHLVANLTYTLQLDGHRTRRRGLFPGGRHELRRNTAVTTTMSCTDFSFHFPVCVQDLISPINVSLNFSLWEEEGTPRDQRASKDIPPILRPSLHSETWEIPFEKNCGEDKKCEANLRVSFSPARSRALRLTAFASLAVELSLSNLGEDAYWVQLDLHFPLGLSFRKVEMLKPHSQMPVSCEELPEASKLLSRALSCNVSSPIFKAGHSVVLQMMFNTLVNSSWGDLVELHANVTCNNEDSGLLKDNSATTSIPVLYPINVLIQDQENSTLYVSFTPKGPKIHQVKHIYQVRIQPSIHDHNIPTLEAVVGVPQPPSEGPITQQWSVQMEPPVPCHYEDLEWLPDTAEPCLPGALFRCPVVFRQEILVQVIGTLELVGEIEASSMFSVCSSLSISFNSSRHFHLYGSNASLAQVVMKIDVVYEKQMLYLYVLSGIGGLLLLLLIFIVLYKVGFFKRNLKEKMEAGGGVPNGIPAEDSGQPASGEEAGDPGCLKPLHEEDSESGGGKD
The assay can be described thus: binding to rhesus CD11a compared with human CD11a.

B1: murine MHM24 (antibody, V domains shown)
VH: EVQLQQPGAELMRPGASVKLSCKASGYSFTGHWMNWVRQRPGQGLEWIGMIHPSDSETRLNQKFKDKATLTVDKSSSSAYMQLSSPTSEDSAVYYCARGIYFYGTTYFDYWGQGTTLTVSS
VL: DVQITQSPSYLAASPGETISINCRASKTISKYLAWYQEKPGKTNKLLIYSGSTLQSGIPSRFSGSGSGTDFTLTISSLEPEDFAMYYCQQHNEYPLTFGTGTKLELKR
notes: Murine anti-human CD11a monoclonal antibody; also called muMHM24; murMHM24
Regarding B1, the Kd in assay [1] was 150 pM; in assay [3], 130 pM; in assay [4], 160 pM. Moreover, the “IC50, blocking of cell adhesion, Jurkat: HuK” value in assay [2] worked out at 90 pM. Further, in assay [5], the “fold reduction in binding against human CD11a” value is ~1000 fold.
